Changes are numbered by the printed parent chain. Numbers in names are those of the source.
B1: R268A/R411A: T. reesei CBH I (SEQ ID NO:2) with R268A and R411A substitutions (protein, listed as Trichoderma reesei)
chain: MYRKLAVISAFLATARAQSACTLQSETHPPLTWQKCSSGGTCTQQTGSVVIDANWRWTHATNSSTNCYDGNTWSSTLCPDNETCAKNCCLDGAAYASTYGVTTSGNSLSIGFVTQSAQKNVGARLYLMASDTTYQEFTLLGNEFSFDVDVSQLPCGLNGALYFVSMDADGGVSKYPTNTAGAKYGTGYCDSQCPRDLKFINGQANVEGWEPSSNNANTGIGGHGSCCSEMDIWEANSISEALTPHPCTTVGQEICEGDGCGGTYSDNAYGGTCDPDGCDWNPYRLGNTSFYGPGSSFTLDTTKKLTVVTQFETSGAINRYYVQNGVTFQQPNAELGSYSGNELNDDYCTAEEAEFGGSSFSDKGGLTQFKKATSGGMVLVMSLWDDYYANMLWLDSTYPTNETSSTPGAVAGSCSTSSGVPAQVESQSPNAKVTFSNIKFGPIGSTGNPSGGNPPGGNPPGTTTTRRPATTTGSSPGPTQSHYGQCGGIGYSGPTVCASGTTCQVLNPYYSQCL
B2: R411A: T. reesei CBH I (SEQ ID NO:2) with R411A substitution (protein, listed as Trichoderma reesei)
chain: B1 chain with A268R
B3: R268K/R411K: T. reesei CBH I (SEQ ID NO:2) with R268K and R411K substitutions (protein, listed as Trichoderma reesei)
chain: B1 chain with A268K, A411K
B4: R268K/R411A: T. reesei CBH I (SEQ ID NO:2) with R268K and R411A substitutions (protein, listed as Trichoderma reesei)
chain: B1 chain with A268K
B5: R268A: T. reesei CBH I (SEQ ID NO:2) with R268A substitution (protein, listed as Trichoderma reesei)
chain: B1 chain with A411R
B6: R268K: T. reesei CBH I (SEQ ID NO:2) with R268K substitution (protein, listed as Trichoderma reesei)
chain: B1 chain with A268K, A411R
B7: R268A/R411K: T. reesei CBH I (SEQ ID NO:2) with R268A and R411K substitutions (protein, listed as Trichoderma reesei)
chain: B1 chain with A411K
B8: R411K: T. reesei CBH I (SEQ ID NO:2) with R411K substitution (protein, listed as Trichoderma reesei)
chain: B1 chain with A268R, A411K

Assay: Bagasse assay in the absence and presence of β-glucosidase (BG)
Type: biochemical
Details: variants of T. reesei CBH I; [(Activity without BG)/(Activity with BG)]*100; conversion of glucan after 72 hours
Experimental: Bagasse Assay: This assay measures the activity of CBH I on bagasse, a lignocellulosic substrate. Reactions were run in 10 ml vials with 5% dilute acid pretreated bagasse (250 mg solids per 5 ml reaction). Each reaction contained 4 mg CBH I enzyme/g solids, 200 mM MES pH 6, kanamycin, and chloramphenicol. Reactions were incubated at 35° C. in hybridization incubators (Robbins Scientific), rotating at 20 RPM. Time points were taken by transferring a sample of homogenous slurry (150 μl) into a 96-well deep well plate and quenching the reaction with stop buffer (450 μl of 500 mM sodium carbonate, pH 10). Time point measurements were taken every 24 hours for 72 hours.
Cellobiose Tolerance Assays (or Cellobiose Inhibition Assays): Tolerance to cellobiose (or inhibition caused by cellobiose) was tested in two ways in the CBH I assays. A direct-dose tolerance method can be applied to all of the CBH I assays (i.e., 4-MUL, PASC, and/or bagasse assays), and entails the exogenous addition of a known amount of cellobiose into assay mixtures. A different indirect method entails the addition of an excess amount of β-glucosidase (BG) to PASC and bagasse assays (typically, 1 mg β-glucosidase/g solids loaded). BG will enzymatically hydrolyze the cellobiose generated during these assays; therefore, CBH I activity in the presence of BG can be taken as a measure of activity in the absence of cellobiose. Furthermore, when activity in the presence and absence of BG are similar, this indicates tolerance to cellobiose. […]
FIGS. 4 and 5 show bar graph data for the bagasse assay of wild type T. reesei CBH I vs. the variants. In FIG. 4, bars represent relative activity, normalized to wild type activity in the absence of cellobiose (WT+BG=1). In FIG. 5, bars represent tolerance to cellobiose, as represented by the ratio of activity in the presence of accumulating cellobiose (−BG) to that of activity in the absence of cellobiose (+BG); ratios close to 1 indicate greater tolerance to cellobiose.

With B1 as the molecule, how does the “Tolerance to cellobiose accumulation % Activity in Bagasse Assay (−/+BG)” value read?
Its value is 95%.

For B2, which “Tolerance to cellobiose accumulation % Activity in Bagasse Assay (−/+BG)” value is on record?
The value was 94%.

For B3, which “Tolerance to cellobiose accumulation % Activity in Bagasse Assay (−/+BG)” value is on record?
Its value is 94%.

For B4, which “Tolerance to cellobiose accumulation % Activity in Bagasse Assay (−/+BG)” value is on record?
Its value is 102%.

With B5 as the molecule, how does the “Tolerance to cellobiose accumulation % Activity in Bagasse Assay (−/+BG)” value read?
The value was 86%.

Which “Tolerance to cellobiose accumulation % Activity in Bagasse Assay (−/+BG)” value does the source give for B6 here?
The value was 92%.

Which “Tolerance to cellobiose accumulation % Activity in Bagasse Assay (−/+BG)” value does the source give for B7 here?
The value was 94%.

With B8 as the molecule, how does the “Tolerance to cellobiose accumulation % Activity in Bagasse Assay (−/+BG)” value read?
Its value is 89%.
